Results: the Immune Epitope Database (IEDB)

Key:
Conditions in all cases: source organism: Homo sapiens
[1] = molecular target: HLA-A*01:01; experiment: IEDB peptide-MHC binding, purified MHC/competitive/radioactivity; filed as Kd, often an IC50 or EC50 that approximates it; ≥ and ≤ were set here for values at or beyond the usual limits of such assays
[2] = molecular target: HLA-A*11:01; experiment: as above
[3] = molecular target: HLA-A*03:01; experiment: as above
[4] = molecular target: HLA-A*02:01; experiment: as above
[5] = molecular target: HLA-A*24:02; experiment: as above
[6] = molecular target: HLA-A*03:01; experiment: IEDB peptide-MHC binding, purified MHC/competitive/radioactivity; ≥ and ≤ were set here for values at or beyond the usual limits of such assays
[7] = molecular target: HLA-A*02:01; experiment: as above

MLESVIKNY
Kd [1]: 2270 nM

SLFRAVITKK
Kd [2]: 6 nM
Kd [3]: 9.2 nM

YVLVTCLGL
Kd [4]: 2170 nM

LVLGTLEEV
Kd [4]: 156 nM

SYVKVLEYVI
Kd [5]: 333 nM

LTQDLVQEK
Kd [2]: 15.5 nM

ADLVGFLLLK
Kd [2]: 20.3 nM
Kd [3]: 31.4 nM

IMPKTGFLII
Kd [4]: 1430 nM
Kd [5]: 34.3 nM

MSLEQRSLH
Kd [3]: 3550 nM

HSAYGEPRK
IC50 [6]: 786 nM

KVADLVGFLL
Kd [4]: 89.3 nM

TTINFTRQR
Kd [2]: 5.9 nM
IC50 [6]: 688 nM

VMIAMEGGHA
Kd [4]: 139 nM

LIIVLVMIA
Kd [3]: ≥ 5000 nM

DLVGFLLLKY
Kd [3]: 1590 nM

YVIKVSARV
Kd [4]: 357 nM

LVGFLLLKYR
Kd [3]: 3240 nM

TSCILESLFR
Kd [2]: 393 nM

GLLGDNQIM
IC50 [7]: 980 nM

LFRAVITKK
Kd [3]: 1000 nM

VGFLLLKYR
Kd [3]: 2500 nM

LTQDLVQEKY
Kd [1]: 20.8 nM

YVKVLEYVIK
Kd [3]: 3790 nM

GLVCVQAAT
Kd [4]: 2170 nM

LSVMEVYDGR
Kd [2]: 492 nM

KVADLVGFL
IC50 [7]: 575 nM

FLWGPRALA
Kd [4]: 119 nM

YVIKVSARVR
IC50 [6]: 579 nM

RALAETSYVK
Kd [2]: 24.6 nM
Kd [3]: 61.1 nM

LLGDNQIMP
IC50 [6]: 550 nM

LLTQDLVQEK
Kd [2]: 36.9 nM

KTGFLIIVLV
Kd [4]: 4170 nM

IMPKTGFLI
Kd [5]: 3.8 nM
IC50 [7]: 649 nM

ALREEEEGV
Kd [4]: 238 nM

SLHCKPEEA
Kd [4]: 385 nM

NYKHCFPEI
Kd [5]: 2.5 nM

SLEQRSLHCK
Kd [2]: 393 nM
IC50 [6]: 733 nM

RVRFFFPSLR
Kd [3]: 25.6 nM

RALAETSYV
IC50 [7]: 500 nM

ETSYVKVLEY
Kd [1]: 44.6 nM

LVQEKYLEY
Kd [2]: 111 nM

ALGLVCVQA
Kd [4]: 333 nM

MLESVIKNYK
Kd [2]: 218 nM
Kd [3]: 78.6 nM

SVMEVYDGR
Kd [2]: 4.5 nM
Kd [3]: 1180 nM

VADLVGFLL
Kd [4]: 2500 nM

FLIIVLVMIA
Kd [3]: 1180 nM

SLQLVFGIDV
Kd [4]: 2500 nM

ALAETSYVK
Kd [2]: 16.4 nM
Kd [3]: 35.5 nM

LVGFLLLKY
Kd [3]: 196 nM
